PMC10562830

Biological target: Chikungunya virus-like particles of the 37997 strain (chikungunya virus (strain 37997))

B1: 506.C01 (antibody, V domains shown)
VH: QVQLQESGPGLVKPSQTLSLTCTVSGGSISSDDYYWTWIRLPPGKGLEWIGYIFYTGGTYYNPSLKSRVTISLDRSKNQFSLKLSSVTAADTAVYFCARAPETYCSTTNCYKGYFDSWGQGTLVTVSS
VL: DIQMTQSPSSVSASVGDRVTITCRASQGISSWLGWYQQKPGKAPKLLIYAASSLQSGVPSRFSGSGSGTDFTLTISSLQPEDFATYYCQQANSFPRTFGQGTKVEIK
- FRNT neutralisation of CHIKV-37997 and CHIKV-LR 2006 on Vero cells, EC50: < 10 ng/mL
